Laboratory results reported in patent publication US20130230533A1 (Regeneron, published 2013).
Substitutions are numbered along the chain they refer to. Names and notes keep the numbering of the source.

T1: human CD48 (on primary human peripheral blood mononuclear cells) (human, UniProt P09326 27-220)
T1 sequence: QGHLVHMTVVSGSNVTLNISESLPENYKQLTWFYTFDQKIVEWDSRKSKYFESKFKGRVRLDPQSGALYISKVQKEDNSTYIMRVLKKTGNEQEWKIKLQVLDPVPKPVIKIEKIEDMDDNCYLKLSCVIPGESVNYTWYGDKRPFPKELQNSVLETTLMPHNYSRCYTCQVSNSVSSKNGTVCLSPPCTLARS

T2: monomeric monkey CD48 expressed with a tag consisting of 2 myc and one 6-His epitopes (monkey)
T2 construct: also called mfCD48-mmH; Monomeric monkey CD48-mmH
T2 chain: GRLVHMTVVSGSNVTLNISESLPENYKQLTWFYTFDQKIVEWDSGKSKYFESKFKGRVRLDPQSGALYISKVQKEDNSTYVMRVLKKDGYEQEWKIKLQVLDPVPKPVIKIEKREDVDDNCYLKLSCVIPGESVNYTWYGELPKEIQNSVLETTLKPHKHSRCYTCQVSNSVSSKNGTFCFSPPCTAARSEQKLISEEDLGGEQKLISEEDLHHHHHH

T3: biotinylated dimeric human CD48 protein expressed as a fusion with mouse IgG2a Fc (human, biotinylated)
T3 construct: also called bio-hCD48-mFc; Dimeric human CD48-mFc
T3 chain: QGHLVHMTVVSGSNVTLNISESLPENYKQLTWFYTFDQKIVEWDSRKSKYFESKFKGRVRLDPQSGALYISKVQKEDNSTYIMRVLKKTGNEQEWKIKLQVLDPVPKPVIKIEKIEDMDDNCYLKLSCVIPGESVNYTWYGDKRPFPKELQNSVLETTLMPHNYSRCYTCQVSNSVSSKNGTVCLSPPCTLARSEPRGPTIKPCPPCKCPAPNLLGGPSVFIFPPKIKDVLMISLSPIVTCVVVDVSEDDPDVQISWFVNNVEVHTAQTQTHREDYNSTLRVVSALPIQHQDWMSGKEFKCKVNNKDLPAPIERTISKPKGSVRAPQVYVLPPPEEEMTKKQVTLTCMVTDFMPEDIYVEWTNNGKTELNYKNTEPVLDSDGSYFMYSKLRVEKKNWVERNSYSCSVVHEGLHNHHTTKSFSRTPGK

B1: H4H1763N (antibody, human IgG4, V domains shown)
VH: QIQLVQSGAEMKRPGTSVKVSCKASGYTFTSYGINWVRQAPGQGLEWMGWISAYNGDTNYAQKLQGRVTMTTDTSTTTAYMEVRSLRSDDTAVYYCARFLTGTKDYYYGMDVWGQGTTVTVSS
VL: DIQMTQSPSSLSASVGDRVTITCQASQDISNFLNWYQQKPGKAPDLLINDASILETGVPSRFSGSGSGTDFTLTINNLQPEDIATYYCQQYDNLPLTFGGGTKVEIK
notes: Human IgG4 Fc (H4H) form of 1763N
B2: H4H1771P (antibody, human IgG4, V domains shown)
VH: QVQLVQSGTEVKKPGASVKVSCKVSGYTLIDLSIHWVRQAPGEGLEWMGGFDPEESETIYAQKFQGRVTMTEDTSTDTAYMELSSLRSEDTAVYYCVTEPIFGILIHESWGQGTLVTVSS
VL: DIVMTQTPLSSPVTLGQPASISCRSSHSPVHSNGHTYLSWLQQRPGQPPRILIYKISRRFSGVPDRFSGSGAGTDFTLKISRVETEDVGIYYCMQASQFPWTFGQGTKVEIK
notes: Human IgG4 Fc (H4H)
B3: H4H1772P (antibody, human IgG4, V domains shown)
VH: EVQLVESGGGLVQPGGSLRLSCAASGFTFSSYWMSWVRQAPGKGLEWVANIMRDGSEKYYVDSVKGRFTISRDNAKNSLYLQMNSLRGEDTAVYYCARERGFYTNYGNWFDPWGQGTLVTVSS
VL: DIVMTQSPLSLTVTPGESASISCRSSQSLLHSYGYNSLDWYLQKPGQSPQFLIYLVSNRASGVPDRFSGSGSGTDFTLKISRVEAEDVGVYYCMQVLQTPYTFGQGTKLEIK
notes: Human IgG4 Fc (H4H)
B4: H4H1764N (antibody, human IgG4, V domains shown)
VH: QVQLVESGGGVVQPGRSLRLSCAASGFTFSDYGMHWVRQAPGKGLEWVAVIWNDGSNKNYADSVKGRFSISSDSSKNTLYLHMNSLRAEDTAVYYCARSLYSTSPWYFDLWGRGTLVTVSS
VL: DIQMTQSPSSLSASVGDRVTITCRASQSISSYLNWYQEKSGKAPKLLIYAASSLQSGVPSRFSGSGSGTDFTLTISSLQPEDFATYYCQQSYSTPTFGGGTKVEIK
notes: Human IgG4 Fc (H4H) form of 1764N
B5: H4H1775P (antibody, human IgG4, V domains shown)
VH: QVQLVESGGGVVQPGRSLRLSCAASGFTFSNYGMHWVRQAPGKGLEWVAVIWYDESGKHYADSVKGRFTISRDNSQNTLYLQMTSLRAEDTAVYYCARDRWTYSHYFEYWGQGTLVTVSS
VL: DIQMTQSPSSVSASVGDRVTITCRASQDISSWVAWYQQKPGKAPKLLIYAASSLQSGVPSRFSGSGSGTDFTLTISSLQPEDFATYYCQQANSFPRTFGQGTKVEIK
notes: Human IgG4 Fc (H4H)
B6: H4H1707N (antibody, V domains shown)
VH: EGQLLESGGGLAQPGGSLRLSCAASGITFGRYAMSWVRQAPGKGLEWVSLISGSGGSTYHADSVKGRFTISRDNSKNTLYLQMNSLRAEDTAVYYCAIYNNYNWFDPWGQGTLVTVSS
VL: EIVLTQSPGTLSLSPGERATLSCRASQSVSSNYLAWYQQKPGQAPRLLIYDASSRATDIPDRFSGSGSGTDFTLTISRLEPEDFAVYYCQQYGSSPRTFGQGTKVEIK
notes: Human IgG4 Fc (H4H) form of 1707N
B7: H4H1774P (antibody, human IgG4, V domains shown)
VH: B5 VH with G57S, H59Y, A61T
VL: B5 VL with D28G
notes: Human IgG4 Fc (H4H)
B8: H4H1778P (antibody, human IgG4, V domains shown)
VH: B5 VH with G57S, H59Y, A61T
VL: B5 VL with D28G
notes: Human IgG4 Fc (H4H)
B9: H4H1781P (antibody, human IgG4, V domains shown)
VH: B5 VH with E55D, G57N, H59N, Q76K, T84N, A88V, Y106F
VL: B5 VL with D28G, V33L, K45N, S63G, T72S, S77G
notes: Human IgG4 Fc (H4H)
B10: H4H1779P (antibody, human IgG4, V domains shown)
VH: B5 VH with G57S
VL: B5 VL
notes: Human IgG4 Fc (H4H)

Target: T1, human CD48 (on primary human peripheral …)
Assay: cell-based or functional assay

IC50 of IFNγ release, MLR; D1 | IC50 of IFNγ release, MLR; D3 | IC50 of IFNγ release, MLR; D4 | IC50 of IFNγ release, MLR; D5 | IC50 of IFNγ release, MLR; D6 | IC50 of IFNγ release, MLR; D8 | IC50 of IFNγ release, MLR; D9 | IC50 of IFNγ release, MLR; D10 | IC50 of IFNγ release, MLR; D11 | IC50 of IFNγ release, MLR; D12 | Binder
~10 pM | ~6.4 pM | 210 pM | ~27 pM | 23 pM | ~3700 pM | ~4100 pM | ~84 pM | 73 pM | ~56 pM | B1

Same assay, conditions: not given

IC50 of IFNγ release, MLR; D13 | IC50 of IFNγ release, MLR; D14 | IC50 of IFNγ release, MLR; D15 | IC50 of IFNγ release, MLR; D16 | Binder
92 pM | 63 pM | ~0.059 pM | 7.6 pM | B1

Target: T1, human CD48 (on primary human peripheral …)
Assay: cell-based or functional assay
Remark: another data set of the same source

% Blockade of IFNγ release, MLR; D1 | % Blockade of IFNγ release, MLR; D2 | % Blockade of IFNγ release, MLR; D3 | % Blockade of IFNγ release, MLR; D5 | % Blockade of IFNγ release, MLR; D6 | % Blockade of IFNγ release, MLR; D7 | % Blockade of IFNγ release, MLR; D9 | % Blockade of IFNγ release, MLR; D4 | % Blockade of IFNγ release, MLR; D8 | Binder
78% | 79% | 88% | 47% | 50% | 36% | 32% | – | – | B2
– | 65% | 62% | 62% | 63% | 58% | 59% | 39% | 25% | B3
69% | 46% | 80% | 75% | 59% | 48% | – | – | – | B4
59% | 89% | 68% | 63% | 75% | 48% | 53% | 52% | 30% | B1
42% | 77% | 87% | 70% | 72% | 69% | 60% | 37% | 22% | B5
66% | 87% | 78% | 62% | 77% | 62% | 60% | 20% | 42% | B6

Target: T2, monomeric monkey CD48 expressed with a …
Assay: competition ELISA; blocks mfCD48-mmH binding to coated h2B4-mFc
Protocol: (§1) The ability of human anti-CD48 monoclonal antibodies to block human CD48 and monkey CD48 binding to the human cognate ligand, human 2B4, was measured using a competition sandwich ELISA (Table 8). Constant amounts of biotinylated dimeric human CD48 protein expressed as a fusion with mouse IgG2a Fc (“bio-hCD48-mFc” [SEQ ID NO: 387]) or monomeric monkey CD48 expressed with a tag consisting of 2 myc and one 6-His epitopes (“mfCD48-mmH” [SEQ ID NO: 386]) were separately titrated with varying amounts of antibodies. These antibody-protein complexes were incubated (1 hr, 25° C.) before being transferred to microtiter plates coated with a dimeric construct expressing the human 2B4 receptor fused to a either human IgG1 (h2B4-hFc [R&D Systems, Inc., Minneapolis, Minn., Cat. No. 1039-2B]) or mouse IgG2a Fc (h2B4-mFc [SEQ ID NO: 389). After a 1 hr at 25° C. the wells were washed and bound human CD48 was detected with streptavidin conjugated with horse-radish peroxidase (HRP), and monkey CD48 was detected with an HRP conjugated anti-myc polyclonal antibody. The ELISA was developed with a TMB solution to produce a colorimetric reaction and quenched with sulfuric acid before reading absorbance at 450 nm on a Victor X5 plate reader. Sigmoidal dose response curves were fit to the data using Prism™ software. […] (Tables 8 and 9, NB=no binding observed)

IC50 | Binder
2.2 pM | B2
4.4 pM | B3
160 pM | B4
7.2 pM | B1
16 pM | B7
8.4 pM | B8
8.1 pM | B9
43 pM | B5
5.7 pM | B10
45 pM | B6

Target: T3, biotinylated dimeric human CD48 protein …
Assay: competition ELISA; blocks bio-hCD48-mFc binding to coated h2B4-mFc
Protocol: as §1

IC50 | Binder
9.9 pM | B2
14 pM | B3
76 pM | B4
7.4 pM | B1
25 pM | B7
56 pM | B8
18 pM | B9
44 pM | B5
16 pM | B10
22 pM | B6

Target: T1, human CD48 (on primary human peripheral …)
Assay: cell-based or functional assay
Remark: another data set of the same source

Inhibition of IFN-gamma Release IC50; Donor 6 | Inhibition of IFN-gamma Release IC50; Donor 7 | Binder
2e-12 Molar | 2.2e-11 Molar | B3
2.5e-11 Molar | 9.5e-12 Molar | B7
9.8e-12 Molar | – | B8
3.6e-11 Molar | 1.5e-11 Molar | B9
– | 5.1e-12 Molar | B5
1.7e-12 Molar | 1.5e-11 Molar | B10

Target: T1, human CD48 (on primary human peripheral …)
Assay: cell-based or functional assay
Remark: another data set of the same source

Inhibition of IFN-gamma Release IC50; Donor 11 | Inhibition of IFN-gamma Release IC50; Donor 10 | Inhibition of IFN-gamma Release IC50; Donor 8 | Inhibition of IFN-gamma Release IC50; Donor 9 | Binder
1.5e-11 Molar | – | – | – | B2
8.6e-11 Molar | 1.4e-12 Molar | – | – | B3
2.3e-11 Molar | 5.1e-12 Molar | 5.3e-12 Molar | 3.1e-11 Molar | B4
3.4e-12 Molar | 1e-12 Molar | 8.6e-12 Molar | 9.3e-12 Molar | B1
– | 2e-11 Molar | 3.1e-12 Molar | 2.3e-12 Molar | B5
– | – | – | 5.1e-11 Molar | B6
